Changes are numbered by the printed parent chain.
Columns and labels:
[1] = biological target: T1, human ROR1 Frizzled-His domain protein (amino acid sequence at positions 165-305, Acrobiosystems, RO1-H5222) (human, UniProt Q01973 165-305); assay: SPR Biacore T200, method as Example 6 (antibody Fc-captured, antigen as analyte)
T1 construct: also called Human ROR1 Frizzled-His protein; not shown: His tag
Procedure: (§1) The affinity of purified antibodies for human ROR1-related proteins was determined separately using the surface plasmon resonance (SPR) biosensor Biacore T200 (GE Healthcare). The antibodies were immobilized on the sensor chip by the Fc capture method. Human ROR1-related proteins were used as analytes. Data for dissociation (kd) and association (ka) rate constants were obtained using the Biacore T200 evaluation software. The equilibrium dissociation constant (KD) was calculated from the ratio of kd to ka.
(§2) According to the mutation status of the improved clones in the precise saturation mutation library, the combinatorial mutations and the relevant primers for library construction for the second round were designed. The combinatorial mutation library construction was performed still using the prokaryotic soluble expression plasmid of the humanized single domain antibody as the template. The subsequent screening process was the same as that for the precise saturation mutation library. Finally, the top 5 or 7 clones ranked by the improvement fold in affinity were selected for recombinant verification. 5 clones with improved affinity (AHF22016, AHF22018, AHF22013, AHP15485-VHH4-Variant1, and AHP15485-VHH4-Variant2) were obtained from the humanized antibody AHP15485 through affinity maturation screening, and were subjected to eukaryotic expression and purification, as well as subsequent affinity detection at various concentrations. 7 clones (AHP15662-VHH4-Variant1, AHP15662-VHH4-Variant2, AHP15662-VHH4-Variant3, AHF21711, AHF21719, AHF21720, and AHF21721) were obtained from AHP15662-VHH4.

[2] = biological target: T2, human ROR1-His protein (fused with a His protein tag, Acrobiosystems, RO1-H522y) (human, UniProt Q01973 30-403); assay: indirect ELISA, antigen coated at 1 ug/ml
T2 construct: also called recombinant human ROR1-His protein; not shown: His tag
T2 sequence (Q01973 30-403 limits assumed): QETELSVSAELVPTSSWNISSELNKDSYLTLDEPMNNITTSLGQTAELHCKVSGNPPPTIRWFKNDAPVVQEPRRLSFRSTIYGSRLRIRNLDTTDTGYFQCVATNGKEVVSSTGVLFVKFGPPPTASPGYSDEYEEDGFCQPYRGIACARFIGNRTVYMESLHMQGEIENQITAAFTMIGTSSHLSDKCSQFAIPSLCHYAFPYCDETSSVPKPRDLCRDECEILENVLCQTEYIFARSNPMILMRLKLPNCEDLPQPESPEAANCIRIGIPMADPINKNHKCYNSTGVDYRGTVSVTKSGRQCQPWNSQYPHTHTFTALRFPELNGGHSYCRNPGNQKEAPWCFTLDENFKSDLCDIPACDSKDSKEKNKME
Procedure: (§3) Indirect ELISA was used to assess the binding capability of the above purified antibodies to human ROR1-related recombinant proteins. ELISA plates (Nunc) were coated with 1 μg/ml of human ROR1-His protein, human ROR1 Frizzled-His domain protein, and human ROR1 Kringle-His domain protein in 100 μl/well of CBS overnight at 4° C. The plates were washed with PBS-T (0.05% Tween) and blocked with 300 μl/well of PBS containing 3% skim milk at 37° C. for 1 hour. Subsequently, the blocking solution was discarded, and 100 μl of purified antibody at 8 μg/ml (about 100 nM) was added to the first well and diluted according to a 3-fold gradient to obtain a total of 11 test concentration gradients. The plates were then incubated for 1 hour at room temperature. The plates were washed 3 times with PBST and incubated with 100 μl/well of horseradish peroxidase-conjugated mouse anti-human IgG Fc fragment (GenScript) for 0.5 hours at 37° C. The plates were washed five times with PBST, a TMB chromogenic solution (GenScript) was then added, and the plates were incubated for 15 minutes at room temperature in the dark. The reaction was stopped by adding 50 μl of 1 M HCl stop solution (Sigma). The plates were read at 450 nm using a microplate reader. FIGS. 1-3 show the results of the ELISA experiment on the binding of 8 positive recombinant antibody clones to ROR1-related antigen proteins, and the EC₅₀ for each antibody is as shown in Table 2 below: the antigen binding capacity of the antibodies tested was all equal to or higher than that of the positive reference antibody R11-scFv.

[3] = biological target: T1, human ROR1 Frizzled-His domain protein …; assay: indirect ELISA, antigen coated at 1 ug/ml
Procedure: as §3

[4] = biological target: T3, human ROR1 expressed on CHO cells (CHO-K1/Human ROR1 stable cells) (human, UniProt Q01973 30-937); assay: flow cytometry, 10 ug/ml antibody on Human ROR1-CHO-K1 cells (curve 1), fluorescent secondary antibody
T3 construct: whole, on cells; also called CHO-K1/ROR1/Luc (Nanjing Probio, Cat #RD00949)
T3 sequence (Q01973 30-937): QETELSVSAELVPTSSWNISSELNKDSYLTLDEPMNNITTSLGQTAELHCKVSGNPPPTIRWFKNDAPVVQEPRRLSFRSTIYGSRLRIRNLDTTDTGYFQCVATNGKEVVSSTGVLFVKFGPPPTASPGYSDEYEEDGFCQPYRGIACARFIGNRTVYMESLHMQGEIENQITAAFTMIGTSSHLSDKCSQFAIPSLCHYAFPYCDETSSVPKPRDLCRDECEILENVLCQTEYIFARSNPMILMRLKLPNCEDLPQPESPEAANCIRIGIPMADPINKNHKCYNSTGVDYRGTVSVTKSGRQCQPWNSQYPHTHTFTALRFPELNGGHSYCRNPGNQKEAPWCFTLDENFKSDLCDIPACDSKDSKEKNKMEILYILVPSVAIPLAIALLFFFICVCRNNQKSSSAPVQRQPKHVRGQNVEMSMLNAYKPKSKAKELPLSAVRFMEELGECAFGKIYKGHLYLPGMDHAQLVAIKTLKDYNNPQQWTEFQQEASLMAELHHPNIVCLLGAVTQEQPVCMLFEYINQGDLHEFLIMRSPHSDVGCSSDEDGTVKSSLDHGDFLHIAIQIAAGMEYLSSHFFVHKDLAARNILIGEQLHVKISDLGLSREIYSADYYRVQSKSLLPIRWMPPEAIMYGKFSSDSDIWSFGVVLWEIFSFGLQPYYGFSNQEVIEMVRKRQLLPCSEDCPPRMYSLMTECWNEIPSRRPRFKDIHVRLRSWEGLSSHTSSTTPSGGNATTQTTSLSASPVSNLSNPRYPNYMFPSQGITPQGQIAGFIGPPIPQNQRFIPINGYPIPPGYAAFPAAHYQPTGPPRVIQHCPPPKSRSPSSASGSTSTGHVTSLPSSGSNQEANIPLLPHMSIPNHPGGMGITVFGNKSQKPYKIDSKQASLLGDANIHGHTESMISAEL
Procedure: (§4) CHO cells expressing human and mouse ROR1 and parental cells as the negative control for detection were collected and washed 3 times with PBS. 2.5×10⁵ test cells and 100 μl of purified antibody at 10 μg/ml were added to a 96-well plate, and the plate was incubated at 4° C. for 1 hour. The cells were then washed 3 times with PBS, 100 μl of iFluor-labeled goat anti-human IgG, an Fcγ-specific fragment antibody, was added, and the plate was incubated at 4° C. for 45 minutes. Finally, the cells were washed 3 times with PBS, and the signals were read using FACS BD Calibur.

[5] = biological target: T4, mouse ROR1 expressed on CHO cells (CHO-K1/Mouse ROR1 stable cells) (mouse, UniProt Q9Z139 30-937); assay: flow cytometry, 10 ug/ml antibody on Mouse ROR1-CHO-K1 cells (curve 2), fluorescent secondary antibody
T4 construct: whole, on cells
T4 sequence (Q9Z139 30-937): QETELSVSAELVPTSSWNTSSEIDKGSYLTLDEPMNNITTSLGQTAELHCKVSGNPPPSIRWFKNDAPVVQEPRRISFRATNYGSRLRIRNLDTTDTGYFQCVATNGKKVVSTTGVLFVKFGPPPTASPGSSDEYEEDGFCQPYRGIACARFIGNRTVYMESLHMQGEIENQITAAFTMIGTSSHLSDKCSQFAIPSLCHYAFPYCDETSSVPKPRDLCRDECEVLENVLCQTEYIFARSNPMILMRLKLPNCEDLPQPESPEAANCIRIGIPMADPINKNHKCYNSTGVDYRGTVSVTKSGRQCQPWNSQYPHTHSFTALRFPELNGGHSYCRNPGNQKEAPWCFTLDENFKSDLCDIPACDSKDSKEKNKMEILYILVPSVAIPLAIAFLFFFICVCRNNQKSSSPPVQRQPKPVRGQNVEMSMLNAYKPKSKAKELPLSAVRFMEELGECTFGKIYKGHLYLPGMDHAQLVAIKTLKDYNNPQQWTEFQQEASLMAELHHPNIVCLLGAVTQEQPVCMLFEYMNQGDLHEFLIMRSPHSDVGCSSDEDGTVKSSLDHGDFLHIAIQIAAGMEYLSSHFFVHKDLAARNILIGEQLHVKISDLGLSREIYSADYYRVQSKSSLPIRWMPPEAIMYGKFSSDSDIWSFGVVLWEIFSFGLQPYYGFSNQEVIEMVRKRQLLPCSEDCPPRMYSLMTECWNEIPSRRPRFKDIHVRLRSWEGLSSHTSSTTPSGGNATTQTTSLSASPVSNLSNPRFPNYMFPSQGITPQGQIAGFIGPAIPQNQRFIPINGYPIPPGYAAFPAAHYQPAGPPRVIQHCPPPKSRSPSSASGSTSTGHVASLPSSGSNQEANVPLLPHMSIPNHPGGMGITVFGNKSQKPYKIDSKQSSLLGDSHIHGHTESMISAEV
Procedure: as §4

[6] = biological target: T1, human ROR1 Frizzled-His domain protein …; assay: SPR Biacore T200, antibody Fc-captured, antigen as analyte
Procedure: as §1

[7] = biological target: T2, human ROR1-His protein (fused with a …); assay: as above
Procedure: as §1

[8] = biological target: human ROR1 Frizzled-His domain protein (amino acid sequence at positions 165-305, Acrobiosystems, RO1-H5222) (human) (UniProt Q01973); assay: indirect ELISA, plate coated with human ROR1 Frizzled-His, HRP anti-human IgG Fc, OD450
Chain of human ROR1 Frizzled-His domain protein (amino acid sequence at positions 165-305, Acrobiosystems, RO1-H5222) (human) (Q01973 165-305 limits assumed, form in doubt): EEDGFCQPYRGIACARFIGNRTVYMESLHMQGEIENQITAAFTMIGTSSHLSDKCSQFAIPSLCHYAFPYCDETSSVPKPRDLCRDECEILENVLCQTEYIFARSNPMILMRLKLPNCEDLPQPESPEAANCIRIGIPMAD

[9] = biological target: T4, mouse ROR1 expressed on CHO cells …; assay: flow cytometry, antibody at 10 ug/ml on CHO cells
Procedure: as §4

[10] = biological target: T2, human ROR1-His protein (fused with a …); assay: SPR Biacore T200, method as Example 6 (antibody Fc-captured, antigen as analyte)
Procedure: as §1, §2

T1 sequence (Q01973 165-305 limits assumed, form in doubt): as above

B1: single domain antibody AHF21719 (Fc fusion)
chain: EVQLVESGGGLVQPGGSLRLSCAASGYISRFYAMGWYRQAPGKQRELVARISSGGWTYYADSVKGRFTISIDNSKNTLYLQMNSLRAEDTAVYYCNARNLWGQGTLVTVSS
notes: Fc format is inferred; not shown: human IgG1 Fc; vector and li
- Kd [1]: 21.6 nM
- koff [1]: 0.00169 s⁻¹
- kon [1]: 78100 M⁻¹ s⁻¹

B2: single domain antibody AHP15662-VHH4-Variant2 (Fc fusion)
chain: B1 chain with G26Y, Y27F, M34V
notes: as for B1
- Kd [1]: 75.3 nM
- koff [1]: 0.0119 s⁻¹
- kon [1]: 159000 M⁻¹ s⁻¹

B3: single domain antibody AHP15662 (Fc fusion)
chain: B1 chain with S17T, Y27S, M34V, W56S, D72N, L78V, S84N, R86K, A87P, L106Q
notes: VHH expressed from pcDNA3.4-Fc (HuIgG1); also called AHP15662-VHH; not shown: human IgG1 Fc of the pcDNA3.4-Fc (HuIgG1) expression vector
- EC50 [2]: 0.0105 µg/mL
- EC50 [3]: 0.0105 µg/mL
- Geometric Mean : Alexa Fluor 647-H [4]: 56400
- Geometric Mean : Alexa Fluor 647-H [5]: 75600
- Kd [6]: 550 nM
- koff [6]: 0.19 s⁻¹
- kon [6]: 345000 M⁻¹ s⁻¹

B4: humanized single domain antibody AHP15662-VHH4 (Fc fusion)
chain: B1 chain with Y27S, M34V, W56S
notes: Humanized VHH expressed from pcDNA3.4-Fc (Human IgG1); not shown: human IgG1 Fc of the pcDNA3.4-Fc (Human IgG1) expression vector
- Geometric Mean : Alexa Fluor 647-H [4]: 55400
- Kd [1]: 294 nM
- koff [1]: 0.103 s⁻¹
- kon [1]: 350000 M⁻¹ s⁻¹
- Geometric Mean : Alexa Fluor 647-H [5]: 52800
- Kd [6]: 247 nM
- koff [6]: 0.111 s⁻¹
- kon [6]: 449000 M⁻¹ s⁻¹

B5: single domain antibody AHF21721 (Fc fusion)
chain: B1 chain with Y27F, G54M
notes: as for B1
- Kd [1]: 15.6 nM
- koff [1]: 0.00113 s⁻¹
- kon [1]: 72500 M⁻¹ s⁻¹

B6: single domain antibody AHP15662-VHH4-Variant3 (Fc fusion)
chain: B1 chain with G26H, M34V
notes: as for B1
- Kd [1]: 39.5 nM
- koff [1]: 0.0062 s⁻¹
- kon [1]: 157000 M⁻¹ s⁻¹

B7: single domain antibody AHF21711 (Fc fusion)
chain: B1 chain with G26H, Y27S, M34I, G54M, W56R
notes: as for B1
- Kd [1]: 19.3 nM
- koff [1]: 0.00174 s⁻¹
- kon [1]: 90100 M⁻¹ s⁻¹

B8: single domain antibody AHP15662-VHH4-Variant1 (Fc fusion)
chain: B1 chain with G26Y, M34V
notes: as for B1
- Kd [1]: 46.3 nM
- koff [1]: 0.00701 s⁻¹
- kon [1]: 151000 M⁻¹ s⁻¹

B9: single domain antibody AHF21720 (Fc fusion)
chain: B1 chain with G54L
notes: as for B1
- Kd [1]: 16.9 nM
- koff [1]: 0.00124 s⁻¹
- kon [1]: 73600 M⁻¹ s⁻¹

B10: single domain antibody AHP15773 (Fc fusion)
chain: EVQLVESGGGLVQPGGSLRLSCLASGSDFSDSAMGWYRQAPGKQREFVAAIGAGGITTYADSVKGRFTISRDSAKNIVYLQMSSLSPEDTAVYFCNFAPGWYPPGYQYWGQGTQVTVSS
notes: VHH expressed from pcDNA3.4-Fc (HuIgG1); also called AHP15773-VHH; not shown: human IgG1 Fc of the pcDNA3.4-Fc (HuIgG1) expression vector
- EC50 [2]: 0.0155 µg/mL
- Geometric Mean : Alexa Fluor 647-H [4]: 33400
- Geometric Mean : Alexa Fluor 647-H [5]: 54900
- Kd [7]: 757 nM
- koff [7]: 0.117 s⁻¹
- kon [7]: 155000 M⁻¹ s⁻¹
- EC50 (read off the curve) [8]: 0.07 µg/mL

B11: humanized single domain antibody AHP15773-VHH4 (Fc fusion)
chain: B10 chain with L23A, S73N, I77T, V78L, S83N, S86R, P87A, Q114L
notes: as for B4
- Geometric Mean : Alexa Fluor 647-H [4]: 28700
- Geometric Mean : Alexa Fluor 647-H [5]: 48500
- Kd [7]: 319 nM
- koff [7]: 0.0587 s⁻¹
- kon [7]: 184000 M⁻¹ s⁻¹

B12: single domain antibody AHP15547 (Fc fusion)
chain: AVQLVDSGGGSVQPGESLTLSCTGSARFLSNYGMGWYRQFPGKMREMVAYETNRGNKRYAESVKGRFRIARDAAKTTVYLEMNSLKPEDTAVYYCNAESSGWGRRNYWGQGTQVTVSS
notes: VHH expressed from pcDNA3.4-Fc (HuIgG1); not shown: human IgG1 Fc of the pcDNA3.4-Fc (HuIgG1) expression vector
- EC50 [2]: 0.0105 µg/mL
- EC50 [3]: 0.0165 µg/mL
- binding result [9]: binds

B13: single domain antibody AHP15776 (Fc fusion)
chain: QVQLVESGGGLVQPGGSLTLSCAASQSISSIYLLGWYRQAPGKERESVARITTSGTTTYIADSVKGRFTLSRDNAKNTMYLQMNSLKPEDTAVYYCNVPFLVATARGNAYWGQGTQVTVSS
notes: as for B12
- EC50 [2]: 0.0109 µg/mL
- EC50 [3]: 0.023 µg/mL
- binding result [9]: binds

B14: single domain antibody AHP15485-VHH4-Variant2 (Fc fusion)
chain: EVQLVESGGGLVQPGGSLRLSCAASGRSFSSFQMGWFRQAPGKEREFVAASGWSGGPTYYWDSVIGRFTISTDNSKNTLYLQMNSLRAEDTAVYYCYEDRVLSGRPVRYWGQGTLVTVSS
notes: as for B1
- Kd [10]: 21.4 nM
- koff [10]: 0.0018 s⁻¹
- kon [10]: 84000 M⁻¹ s⁻¹

B15: humanized single domain antibody AHP15485-VHH4 (Fc fusion)
chain: B14 chain with S31N, W61A, I65K
notes: as for B4
- Geometric Mean : Alexa Fluor 647-H [4]: 38500
- Kd [10]: 290 nM
- koff [10]: 0.0547 s⁻¹
- kon [10]: 189000 M⁻¹ s⁻¹
- Geometric Mean : Alexa Fluor 647-H [5]: 8630
- Kd [7]: 320 nM
- koff [7]: 0.0686 s⁻¹
- kon [7]: 214000 M⁻¹ s⁻¹

B16: single domain antibody AHP15485-VHH4-Variant1 (Fc fusion)
chain: B14 chain with S31N
notes: as for B1
- Kd [10]: 184 nM
- koff [10]: 0.0153 s⁻¹
- kon [10]: 83100 M⁻¹ s⁻¹

B17: single domain antibody AHF22013 (Fc fusion)
chain: B14 chain with P106H
notes: as for B1
- Kd [10]: 8.91 nM
- koff [10]: 0.000374 s⁻¹
- kon [10]: 42000 M⁻¹ s⁻¹

B18: single domain antibody AHF22018 (Fc fusion)
chain: B14 chain with V64W, I65K, P106W
notes: not shown: human IgG1 Fc; vector and li
- Kd [10]: 20.3 nM
- koff [10]: 0.000884 s⁻¹
- kon [10]: 43500 M⁻¹ s⁻¹

B19: single domain antibody AHP15485 (Fc fusion)
chain: EVQLVESGGGLAQAGGSLSLSCTASGRSFSNFQMGWFRQAPGKEREFVAASGWSGGPTYYADSVKGRFTISTDDSKKTMYLQMNSLKPEDTAAYYCYEDRVLSGRPVRYWGRGTQVTVSS
notes: Alpaca VHH expressed from pcDNA3.4-Fc (HuIgG1) in HEK293-6E; also called AHP15485-VHH; not shown: human IgG1 Fc of the pcDNA3.4-Fc (HuIgG1) expression vector
- EC50 [2]: 0.0061 µg/mL
- Geometric Mean : Alexa Fluor 647-H [4]: 61400
- Geometric Mean : Alexa Fluor 647-H [5]: 31400
- Kd [7]: 280 nM
- koff [7]: 0.063 s⁻¹
- kon [7]: 225000 M⁻¹ s⁻¹

Source: patent US20260158064A1 (NANJING PROBIO BIOTECH, published 2026)
